Experimental data taken from patent US20120027773A1 (AVEO PHARMACEUTICALS, published 2012).

Columns and labels:
[1] = molecular target: T1, human wild-type RON (cell surface) (human, UniProt Q04912 25-1400); experiment: cell-based or functional assay
[2] = molecular target: T2, delta 160 RON variant (cell surface) (human, UniProt Q04912 25-1400); experiment: FACS titration on HT29 cells, 4 C
T2 construct: whole, on cells; Splice variant; also called delta 160 variant
Procedure: Binding to cell surface human wild-type RON and the delta 160 RON variant by antibodies 07F01, Sh07F01-62, 29B06, and Sh29B06-78 was measured at 4° C., using Fluorescence Activated Cell Sorting (FACS). PC3 cells expressing the human wild-type RON, and HT29 cells expressing the delta 160 variant, were harvested using cell dissociation buffer (Invitrogen), washed twice with FACS buffer (PBS with 0.5% BSA), and treated 10 minutes with Cyto Q Antibody diluent and FC receptor block (Innovex Biosciences, Richmond, Calif.). Purified antibodies were diluted in FACS buffer over a concentration range from 0.01 nM to 25 nM. Cells were incubated with 100 μl of antibody for one hour, washed with FACS buffer three times, and incubated for 45 minutes with goat anti-mouse PE-conjugated antibody (Jackson ImmunoResearch Laboratories, West Grove, Pa.) or donkey anti-human PE-conjugated antibody (Jackson ImmunoResearch Laboratories, West Grove, Pa.). Cells were washed three times with FACS buffer, resuspended in 300 μl of FACS buffer, and analyzed using a Beckman Coulter Cytomics FC 500 FACS instrument. All four antibodies were compared in the same experiment.

[3] = molecular target: T1, human wild-type RON (cell surface); experiment: FACS, 10 ug/ml antibody, PC3 cells, 4 C
Procedure: Binding to cell surface wild-type RON and delta 160 RON at 4° C. was determined for antibodies 07F01, 12B11, 17F06, 18H09, and 29B06, using FACS. Cells expressing wild-type RON (PC3), and cells expressing delta 160 RON (HT-29), were harvested using cell dissociation buffer (Invitrogen), washed twice with FACS buffer (0.5% BSA PBS) and treated with CytoQ Antibody diluent and FC receptor block (Innovex). Purified antibodies were diluted at a concentration of 10 μg/ml, in FACS buffer. Cells were incubated with 100 μl of antibody mix for one hour, washed with FACS buffer three times, and incubated for 45 minutes with goat anti-mouse PE conjugated antibody (Jackson Immunoresearch Laboratories). Cells were washed three times with FACS buffer, resuspended in 300 μl of FACS buffer and analyzed using a Beckman Coulter Cytomics FC 500 FACS instrument.

[4] = molecular target: T3, recombinant human RON-ECD/mFc fusion protein (human, UniProt Q04912 25-957); experiment: SPR, Ab captured on anti-mouse IgG, 37 C, AVG
T3 construct: extracellular domain; also called rhRON ECD/mFc; rhRon ECD/mFc; not shown: THXmFC: Thrombin/His tag/Factor Xa-AJ mouse IgG-Fc
Procedure: The binding affinities and kinetics of binding of antibodies 07F01, 29B06, 17F06, 18H09, and 12B11 to recombinant human RON-ECD/mFc fusion protein (rhRON ECD/mFc) and recombinant human RON SEMA and PSI domains (rhRON SEMA+PSI) (R&D Systems, Inc., Minneapolis, Minn.) were measured by surface plasmon resonance, using a Biacore T100 instrument (GE Healthcare, Piscataway, N.J.).
Rabbit anti-mouse IgGs (GE Healthcare) were immobilized on carboxymethylated dextran CM4 sensor chips (GE Healthcare) by amine coupling, according to a standard protocol. Analyses were performed at 25° C. and 37° C., using PBS containing 0.05% surfactant P20 as running buffer. The antibodies were captured in individual flow cells at a flow rate of 10 μl/min. Injection time was varied for each antibody to yield an Rmax between 30 and 60 RU. 250 μg/mL mouse Fc were injected at 30 μl/min for 120 seconds to block non-specific binding of antibodies to Fc portion of the protein when needed. Buffer, rhRon ECD/mFc or rhRON SEMA+PSI diluted in running buffer was injected sequentially over a reference surface (no antibody captured) and the active surface (antibody to be tested) for 300 seconds at 60 μl/minute. The dissociation phase was monitored for up to 3600 seconds. The surface was then regenerated with two 60-second injections of 10 mM Glycine-HCl, pH 1.7, at a flow rate of 60 μl/min. The rhRON ECD/mFc or rhRON SEMA+PSI concentration range tested was 0.625 nM to 20 nM.
Kinetic parameters were determined using the kinetic function of the BIAevaluation software (GE Healthcare) with double reference subtraction. Kinetic parameters for each antibody, kₐ (association rate constant), kd (dissociation rate constant) and KD (equilibrium dissociation constant) were determined.

[5] = molecular target: T4, recombinant human RON SEMA and PSI domains (human, UniProt Q04912 25-571); experiment: ECL competition assay: antibody titrated on plate-coated hRON SEMA+PSI; blocked ligand MSP, detected with biotinylated anti-MSP antibody
T4 construct: domain: SEMA+PSI; Commercial protein (R&D Systems); also called rhRON SEMA+PSI; hRON SEMA+PSI
Procedure: The biochemical neutralization assay measures inhibition of MSP binding to hRON by antibodies in hybridoma supernatants, using electrochemiluminescence (ECL). MA2400 96-well high binding plates (Meso Scale Discovery) were coated with 25 μl of 0.42 μg/mL hRON SEMA+PSI (an N-terminal portion of the ECD of hRON; R&D Systems) in PBS for one hour at room temperature with agitation. The plates were washed four times with PBS+0.1% Tween-20 (PBST), and blocked with 150 μl of charcoal-stripped fetal bovine serum (FBS) (Gibco). The hybridoma supernatant were added and incubated for 45 minutes at room temperature. After incubation, 5 μl of MSP (3 μg/mL) in charcoal stripped FBS was added to each well, and incubated for 45 minutes. The plate was washed four times with PBST, and 25 μl of 1 μg/mL biotinylated anti-MSP antibody (R&D Systems) was added to the plates for one hour at room temperature with agitation. The plates were washed four times with PBST, and incubated with 25 μl of 1 μg/mL ST-streptavidin (Meso Scale Discovery) for one hour at room temperature with agitation. The plates were washed four times with PBST, and 150 μl read buffer (Meso Scale Discovery) was added to each well before the plates were analyzed on a Sector Imager 2400 (Meso Scale Discovery) instrument. Antibodies 07F01, 18H09 and 29B06 each blocked MSP binding to hRON SEMA+PSI in this neutralization assay.
Antibodies 07F01, 12B11, 17F06, 18H09, and 29B06 were tested for inhibition of MSP binding to hRON SEMA+PSI, as measured by electrochemiluminescence (ECL) assay as described in Example 3. The antibodies (concentration range: 0.006-10 μg/mL) were incubated for 45 minutes at room temperature.

Mean IC50 (nM), inhibition of MSP-dependent ERK phosphorylation, T47D cells [1] [nM] | Kd [2] [nM] | PC3 % cell surface binding [3] [%] | Kd [4] [nM] | koff [4] [s⁻¹] | kon [4] [M⁻¹ s⁻¹] | IC50 (read off the curve) [5] [nM] | Binder
0.44 | 0.167 | 99.1 | 0.28 | 0.0007 | 2.3e+06 | ~1 | 29B06 (antibody, mouse IgG1, kappa, Murine hybridoma monoclonal, IgG1/kappa; also called mu29B06; antibody 29B06) heavy: EVQLQESGPSLVKPSQTLSLTCSVTGDSITSGYWNWIRKFPGNKLEYMGYISYSGKTYYNPSLKSRISITRDTSKNHYYLQLISVTAEDTATYYCARSKYDYAMDYWGQGTSVTVSSAKTTPPSVYPLAPGSAAQTNSMVTLGCLVKGYFPEPVTVTWNSGSLSSGVHTFPAVLQSDLYTLSSSVTVPSSTWPSETVTCNVAHPASSTKVDKKIVPRDCGCKPCICTVPEVSSVFIFPPKPKDVLTITLTPKVTCVVVDISKDDPEVQFSWFVDDVEVHTAQTQPREEQFNSTFRSVSELPIMHQDWLNGKEFKCRVNSAAFPAPIEKTISKTKGRPKAPQVYTIPPPKEQMAKDKVSLTCMITDFFPEDITVEWQWNGQPAENYKNTQPIMDTDGSYFVYSKLNVQKSNWEAGNTFTCSVLHEGLHNHHTEKSLSHSPGK light: not shown
0.07 | 0.1 | 99.3 | 0.21 | 0.00035 | 2.1e+06 | ~0.3 | 07F01 (antibody, mouse IgG1, kappa, V domains shown, Murine hybridoma monoclonal, IgG1/kappa; also called mu07F01; antibody 07F01) VH: EVKLLESGGGLVQPGGSLKLSCAASGFDFSRHWMSWVRLAPGKGLEWIAEINPDSRTINYTPSLKEKFIISRDNAKNSLFLQMNRVRSEDTALYYCARRVRIHYYGAMDCWGQGTSVTVSS VL: DIVLTQSQKIVSTSVGARVSVTCKASQNVGSSLVWYQQKPGQSPKTLIYSASFRYSGVPDRFTGSGSGTDFTLTISNVQSEDLADYFCQQYNNYPLTFGAGTKLELKR
